The target of data set [1] is T1, von Willebrand factor (VWF) (Homo sapiens, UniProt P04275 P04275:764-2813). The data set can be described thus: filter; Bmax 44%; 2 mM CaCl2, 37 C. The note with it: tags: factor VIII free, Haematologic Technologies Inc; label: 5'-32P. As to the method:
(§1) Affinity constants (Kd values) were determined using double-filter nitrocellulose filter binding assays (Rusconi et al, Thromb. Haemost. $4:841-848 (2000)). All binding studies were performed in binding buffer F (20 mM HEPES, pH 7.4, 150 mM NaCl, 2 mM CaCl₂, and 0.01% BSA) at 37° C. Human purified VWF (factor VIII free) was purchased from Haematologic Technologies Inc. (Essex Junction, Vt.) and used in the double-filter nitrocellulose filter binding assay to determine the Kd of the aptamers. Briefly, RNA were end-labeled at the 5′ end with T4 polynucleotide kinase (New England Biolabs, Beverly, Mass.) and [γ³²P] ATP (Amersham Pharmacia Biotech, Piscataway, N.J.) (Fitzwater and Polisky, Methods Enzymol. 267:275-301 (1996)). End-labeled RNA was diluted in binding buffer F, heat denatured at 65° C. for 5 minutes, and subsequently equilibrated at 37° C. Direct binding was performed by incubating trace ³²P-RNA with varying concentrations of VWF protein in binding buffer F at 37° C. for 5 min. The fraction of the nucleic acid-protein complex which bound to the nitrocellulose membrane was quantified with a phosphorimager (Molecular Dynamics, Sunnyvale, Calif.). Non-specific binding of the radiolabeled nucleic acid was subtracted out of the binding such that only specific binding remained (Wong and Lohman, Proc. Natl. Acad. Sci. USA 90:5428-5432 (1993)).

Data set [2] concerns the target T1, von Willebrand factor (VWF). Nature of the data set: filter; NB (no binding); 2 mM CaCl2, 37 C. Particulars: tags: factor VIII free, Haematologic Technologies Inc; label: 5'-32P. As for the experimental part: as §1
Data set [3] has the same target. The data set can be described thus: filter; Bmax 74%; 2 mM CaCl2, 37 C. The note with it: tags: factor VIII free human purified VWF, Haematologic Technologies Inc; label: 5'-32P. As for the experimental part:
as §1

For data set [4] the target is unchanged. The data set can be described thus: filter; Bmax 20%; 2 mM CaCl2, 37 C. The note with it: tags: factor VIII free, Haematologic Technologies Inc; label: 5'-32P. As for the experimental part:
as §1

For data set [5] the target is unchanged. Nature of the data set: filter; Bmax 64.8%; 2 mM CaCl2, 37 C. Particulars: tags: factor VIII free, Haematologic Technologies Inc; label: 5'-32P. As for the experimental part:
as §1

Experimental findings from patent US20190218553, “VON WILLEBRAND FACTOR (VWF)-TARGETING AGENTS AND METHODS OF USING THE SAME” (DUKE UNIVERSITY, published 2019) are described below.

With ACGAACUGCCCUCGAUCGACGCACAGACGU (ssRNA, mAmCmGmAmAmCmUmGfCfCfCmUmCmGmAmUmCmGmAfCfGfCmAmCmAmGmAmCmGfUidT) [DTRI-007], in data set [1], binding was put at a Kd of 16 nM.

B1: T12 (ssRNA)
RNA: GGGAGGAACUGCCCUCAGCUACUUUCAUGUUGCUGACGCACAGACGACUCGCUG
modifications: 2'-F C and U; 2'-OH A and G
Consider B1, for which the binding result in data set [2] is “no binding”.
For ACGAACUGCCCUCGAUCGACGCACAGACGUACACG (ssRNA, 2'-F C9,C10,C11,C20,G21,C22; rest 2'-OMe; 3' idT) [T84 vrt7], the dissociation constant (Kd) (commonly the constant that tells how readily two partners part at equilibrium) in data set [3] is 182 nM.
With ACGAACUGCCCUCGAUCGACGCACAGACGUUUUUU (ssRNA, mAmCmGmAmAmCmUmGfCfCfCmUmCmGmAmUmCmGmAfCmGfCmAmCmAmGmAmCmGfUmUmUmUmUmU-idT) [T79 vrt3], the dissociation constant (Kd) in data set [4] was found to be 66 nM.
The molecule ACGAACUGCCCUCGUAAGACGCACAGACGUUUUUU (ssRNA, mAmCmGmAmAmCmUmGfCfCfCmUmCmGmUmAmAmGmAfCrGfCmAmCmAmGmAmCmGmUmUmUmUmUmUidT) [DTRI-019] registered a Kd in data set [5] of 4.3 nM.
